In publication PMC9082315 (Frontiers in Immunology, 2022):

B1: 1.26 Nb (VHH)
VHH: QVQLVESGGGLVQAGGSLRLSCAATGYTWSSVCMGWFRQAPGKEREGVAGIPSGRNRPYYADSVKGRFTISQDNAKNAVFLLMNSLKPEDTAIYYCAPCSAPHDPEYNYWGQGTQVTVSS
B2: 1.10 Nb (VHH)
VHH: QVQLVESGGGSVQAGGSLRLSCAASGYTYSTCRKGWYRQAPGKERELVASITADGATYYLDSVKGRLTISQDNAKNTVYLQMNSLKPEDTAVYYCAASVKDFTCTFNSWGQGTQVTVSS
B3: 2.20 Nb (VHH)
VHH: QVQLVESGGGSVQAGGSLRLSCAASGYTYNNYYMGWFRQAPGKEREGVAAINSDGLDTYVADSVKGRFTISRDNAKDTVHLQMNSLKPEDTAIYSCATGRTVYYSGYDFRLSVDDYWGQGTQVTVSS
B4: 1.29 Nb (VHH)
VHH: QVQLVESGGGSVQAGGSLRLSCAASGYTINTDAVAWFRQAPGKGDERVAVIYTGSGNTNYADSVKGRFTISQDNAKNTVYLQMNSLKPEDTALYYCASGYYGASGYDFNNWGQGTQVTVSS
B5: Nb 2.11 displayed on E. coli as intimin-Nb-myc tag fusion (VHH)
VHH: QVQLVESGGGSVQAGGSLRLSCAASGDASNRKCVSWFRRAPGKEREGVALIFPVGSSTAYADSVKGRFTISQDSAKDTVYLQMNNLKPEDSGTYYCAAVSWGGRCNLETQTVTFWGQGTQVTVSS
B6: Nb 2.1 displayed on E. coli as intimin-Nb-myc tag fusion (VHH)
VHH: QVQLVESGGGSVQAGGSLRLSCAAFGATISSAHMGWFRQAPGKEREGVAFRYTDGSSTYYTTSVRGRFTISQDNAKNTVYLQMNSLKPEDTAMYYCASNPSWGRLVGGQYNNWGQGTQITVSS
B7: Nb 2.15 displayed on E. coli as intimin-Nb-myc tag fusion (VHH)
VHH: QVQLVESGGGSVQAGGSLKLSCAASGYASWARKCIGWFRQAPGQEREGVAAIFDFDGSTYYSDSVKGRFTISGDNAKNTVSLQMNSLLPKDTAVYYCTVAFGTCDNWYRGRGDYWGQGTQVTVSS
B8: Nb 1.26 displayed on E. coli as intimin-Nb-myc tag fusion (VHH)
VHH: QVQLVESGGGLVQAGGSLRLSCAATGYTWSSVCMGWFRQAPGKEREGVAGIPSGRNRPYYADSVKGRFTISQDNAKNAVFLLMNSLKPEDTAIYYCAPCSAPHDPEYNYWGQGTQVTVSS
B9: Nb 1.16 displayed on E. coli as intimin-Nb-myc tag fusion (VHH)
VHH: QVQLVESGGGSVQAGGSLRLSCAASGNTSKRKCVGWFRRAPGKEREGVTLIYTVGGSTVYADSVKGRFTISQDNAKDTVYLQMNSLKPEDSAMYYCAAESWGRQCNLETHRFTFWGQGTQVTVSS
B10: Nb 1.10 displayed on E. coli as intimin-Nb-myc tag fusion (VHH)
VHH: QVQLVESGGGSVQAGGSLRLSCAASGYTYSTCRKGWYRQAPGKERELVASITADGATYYLDSVKGRLTISQDNAKNTVYLQMNSLKPEDTAVYYCAASVKDFTCTFNSWGQGTQVTVSS
B11: Nb 2.20 displayed on E. coli as intimin-Nb-myc tag fusion (VHH)
VHH: QVQLVESGGGSVQAGGSLRLSCAASGYTYNNYYMGWFRQAPGKEREGVAAINSDGLDTYVADSVKGRFTISRDNAKDTVHLQMNSLKPEDTAIYSCATGRTVYYSGYDFRLSVDDYWGQGTQVTVSS
B12: Nb 1.29 displayed on E. coli as intimin-Nb-myc tag fusion (VHH)
VHH: QVQLVESGGGSVQAGGSLRLSCAASGYTINTDAVAWFRQAPGKGDERVAVIYTGSGNTNYADSVKGRFTISQDNAKNTVYLQMNSLKPEDTALYYCASGYYGASGYDFNNWGQGTQVTVSS
B13: Nb 1.28 displayed on E. coli as intimin-Nb-myc tag fusion (VHH)
VHH: QVQLVESGGGSVQAGGSLRLSCAASGLTNIRCHMAWYRQAPGKGRELVSRITTNGVTDYADSVKERFTISRHNAENTVYLQMNSLKPEDTAVYYCAACGFSTTTYWGQGTQVTVSS
B14: Nb 1.26, monomeric nanobody (VHH)
VHH: QVQLVESGGGLVQAGGSLRLSCAATGYTWSSVCMGWFRQAPGKEREGVAGIPSGRNRPYYADSVKGRFTISQDNAKNAVFLLMNSLKPEDTAIYYCAPCSAPHDPEYNYWGQGTQVTVSS
B15: Nb 1.29, monomeric nanobody (VHH)
VHH: QVQLVESGGGSVQAGGSLRLSCAASGYTINTDAVAWFRQAPGKGDERVAVIYTGSGNTNYADSVKGRFTISQDNAKNTVYLQMNSLKPEDTALYYCASGYYGASGYDFNNWGQGTQVTVSS

biological target: monomeric SARS-CoV-2 RBD with Flag peptide and 8xHis-tag (RBD-FH) (SARS-CoV-2, WA1 (Wuhan-like), UniProt P0DTC2); assay: SPR; conditions: both partners purified

Question: For B1, which Kd is on record?
Answer: 0.26 nM

Question: What about the koff of the same binder?
Answer: 0.000624 s⁻¹

Question: And the kon?
Answer: 2.44e+06 M⁻¹ s⁻¹

Question: With B2 as the binder, how does the Kd read?
Answer: 3.96 nM

Question: What about the koff of the same binder?
Answer: 0.00137 s⁻¹

Question: What about the kon of the same binder?
Answer: 345000 M⁻¹ s⁻¹

Question: What does the source list for B3?
Answer: Kd: 0.77 nM; koff: 0.00101 s⁻¹; kon: 1.3e+06 M⁻¹ s⁻¹

Question: Which results are given for B4?
Answer: Kd: 12.9 nM; koff: 0.00614 s⁻¹; kon: 476000 M⁻¹ s⁻¹

biological target: T1, human fibrinogen (control antigen) (Homo sapiens, UniProt P02671;P02675;P02679-2, biotin | biotin | biotin); assay: flow cytometry on cells; conditions: one partner purified
T1 construct: also called human fribrinogen
T1 sequence (P02671 36-866, chain 1 of 3): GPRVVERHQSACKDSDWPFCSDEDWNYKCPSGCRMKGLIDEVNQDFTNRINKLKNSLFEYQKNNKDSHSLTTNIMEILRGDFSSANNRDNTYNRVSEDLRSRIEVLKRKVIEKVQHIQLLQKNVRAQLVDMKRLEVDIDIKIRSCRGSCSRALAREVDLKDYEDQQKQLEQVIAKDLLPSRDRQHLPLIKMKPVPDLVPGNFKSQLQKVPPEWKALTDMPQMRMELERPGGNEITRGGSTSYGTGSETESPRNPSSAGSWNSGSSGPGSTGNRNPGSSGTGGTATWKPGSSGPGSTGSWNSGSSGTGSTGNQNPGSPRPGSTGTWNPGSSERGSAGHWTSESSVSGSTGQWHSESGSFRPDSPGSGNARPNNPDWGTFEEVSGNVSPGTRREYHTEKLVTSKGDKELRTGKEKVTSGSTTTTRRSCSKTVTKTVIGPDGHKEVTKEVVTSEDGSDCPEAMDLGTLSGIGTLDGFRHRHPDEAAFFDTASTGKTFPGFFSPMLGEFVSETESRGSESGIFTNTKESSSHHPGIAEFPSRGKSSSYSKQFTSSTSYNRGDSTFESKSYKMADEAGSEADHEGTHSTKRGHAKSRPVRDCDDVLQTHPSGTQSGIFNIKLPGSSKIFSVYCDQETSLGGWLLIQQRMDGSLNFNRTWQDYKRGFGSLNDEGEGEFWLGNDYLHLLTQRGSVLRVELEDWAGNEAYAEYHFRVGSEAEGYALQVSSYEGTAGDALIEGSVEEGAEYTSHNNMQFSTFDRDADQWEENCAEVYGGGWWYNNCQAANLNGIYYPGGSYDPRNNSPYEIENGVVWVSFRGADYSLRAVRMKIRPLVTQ
T1 sequence (P02675 45-491, chain 2 of 3): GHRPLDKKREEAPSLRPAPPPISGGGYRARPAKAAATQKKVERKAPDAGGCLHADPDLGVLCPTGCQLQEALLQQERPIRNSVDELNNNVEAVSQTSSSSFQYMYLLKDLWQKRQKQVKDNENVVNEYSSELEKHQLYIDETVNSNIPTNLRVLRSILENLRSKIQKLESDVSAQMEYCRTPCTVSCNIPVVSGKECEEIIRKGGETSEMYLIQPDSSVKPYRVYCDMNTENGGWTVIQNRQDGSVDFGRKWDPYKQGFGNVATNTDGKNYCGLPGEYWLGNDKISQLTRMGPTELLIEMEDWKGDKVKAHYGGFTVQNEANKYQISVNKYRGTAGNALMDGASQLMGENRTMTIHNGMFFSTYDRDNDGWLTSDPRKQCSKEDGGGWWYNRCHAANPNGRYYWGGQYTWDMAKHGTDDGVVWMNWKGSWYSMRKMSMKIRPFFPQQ
T1 sequence (P02679 27-453, chain 3 of 3): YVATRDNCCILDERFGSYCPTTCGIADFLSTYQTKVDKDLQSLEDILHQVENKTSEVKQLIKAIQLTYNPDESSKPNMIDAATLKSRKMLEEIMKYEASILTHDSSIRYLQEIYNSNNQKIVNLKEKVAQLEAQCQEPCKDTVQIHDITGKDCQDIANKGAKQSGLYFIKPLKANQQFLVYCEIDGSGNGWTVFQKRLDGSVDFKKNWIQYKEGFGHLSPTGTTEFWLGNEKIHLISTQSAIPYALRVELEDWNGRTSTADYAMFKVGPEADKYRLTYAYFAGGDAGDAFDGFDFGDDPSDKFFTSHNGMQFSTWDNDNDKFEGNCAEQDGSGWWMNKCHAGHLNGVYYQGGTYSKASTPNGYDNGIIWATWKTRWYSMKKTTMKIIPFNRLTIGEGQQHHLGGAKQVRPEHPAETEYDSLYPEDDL

Question: Does B5 bind?
Answer: no binding (tested: 100 nM)

Question: Does B6 bind?
Answer: no binding (tested: 100 nM)

Question: Does B7 bind?
Answer: no binding (tested: 100 nM)

Question: Does B8 bind?
Answer: no binding (tested: 100 nM)

Question: Does B9 bind?
Answer: no binding (tested: 100 nM)

Question: Does B10 bind?
Answer: no binding (tested: 100 nM)

Question: Does B11 bind?
Answer: no binding (tested: 100 nM)

Question: Does B12 bind?
Answer: no binding (tested: 100 nM)

Question: Does B13 bind?
Answer: no binding (tested: 100 nM)

biological target: monomeric SARS-CoV-2 RBD (S residues 332-534) with Flag peptide and 8xHis-tag (SARS-CoV-2, WA1 (Wuhan-like), UniProt P0DTC2, biotin (only in the flow cytometry on bacteria)); assay: SPR; conditions: both partners purified

Question: With B14 as the binder, how does the Kd read?
Answer: ~0.3 nM

Question: With B15 as the binder, how does the Kd read?
Answer: 13 nM
